Data: patent publication US20230364207A1

B1: IdeE combinatorial mutant E97D_del18 (protein)
chain: ITSVWTKGVTPLTPEQFRYNNEDVIHAPYLAHQGWYDITKAFDGKDNLLCGAATAGNMLHWWFDQNKTEIEAYLSKHPDKQKIIFNNQELFDLKAAIDTKDSQTNSQLFNYFRDKAFPNLSARQLGVMPDLVLDMFINGYYLNVFKTQSTDVNRPYQDKDKRGGIFDAVFTRGDQTTLLTARHDLKNKGLNDISTIIKQELTEGRALALSHTYANVSISHVINLWGADFNAEGNLEAIYVTDSDANASIGMKKYFVGINAHRHVAISAKKIEGENIGAQVLGLFTLSSGKDIWQKLSHHHHHH

Experiments:
[1] = target: trastuzumab; assay: cell-based or functional assay
[2] = target: IgG in the sera of monkeys
[3] = target: IgG in the sera of pigs
[4] = target: IgG in the sera of rabbits
[5] = target: human IVIg (an intravenous human immunoglobulin)
[6] = target: IgG in the sera of mice
[7] = target: dog IgG
[8] = target: rabbit IgG (rabbit polyclonal IgG antibody 1 and 2)
[9] = target: IgG1 in the sera of humans
[10] = target: IgG in the sera of rats

Molecule | Fold of activity relative to wild-type (ELISA-based human IgG1 cleavage) [1] [fold] | activity of cleaving human IgG1 relative to wild-type IdeE (SDS-PAGE) [1] [fold] | also measured
IdeE C-terminal truncated mutant WT_delC5 (enzyme) | – | – | cleavage activity on human IgG1 relative to wild-type IdeE (SDS-PAGE) [1]: > 2 fold
IdeE mutant T24G (enzyme) | 2.09 | – | –
IdeE mutant A59I (enzyme) | 2.31 | – | –
IdeE mutant T24A (enzyme) | 2.23 | 2 | –
IdeE mutant E97D (enzyme) | 2 | 2 | –
IdeE mutant T24S (enzyme) | 2.18 | – | –
IdeE mutant T8W (enzyme) | 2.58 | 2 | –
IdeE mutant R280H (enzyme) | 2.3 | 2 | –
IdeE mutant T8D (enzyme) | 2.21 | 2 | –
IdeE mutant A10K (enzyme) | 1.99 | – | –
IdeE mutant T8Y (enzyme) | 2.3 | – | –
IdeE mutant A59L (enzyme) | 2.41 | 2 | –
IdeE mutant T8E (enzyme) | 2.09 | – | –
IdeE mutant R280K (enzyme) | 2.2 | – | –
IdeE mutant A59V (enzyme) | 2.68 | 2 | –
IdeE mutant A10R (enzyme) | 2.2 | – | –
IdeE C-terminal truncated mutant WT_delC10 (enzyme) | – | – | cleavage activity on human IgG1 relative to wild-type IdeE (SDS-PAGE) [1]: > 2 fold
B1 | – | – | cleavage of serum IgG of different species (SDS-PAGE) [2]: E97D_del18 can effectively cleave IgG in the sera of rabbits, dogs and monkeys; cleavage of serum IgG of different species (SDS-PAGE) [3]: IgG in the sera of pigs was cleaved more effectively; cleavage of serum IgG of different species (SDS-PAGE) [4]: IgG in the sera of rabbits was cleaved most effectively; cleavage of human IVIg in mouse serum and plasma in vitro (SDS-PAGE) [5]: E97D_del18 can effectively cleave human IVIg in both the sera and plasmas of mice; cleavage in mouse serum in vitro (SDS-PAGE, 25 kD Fc fragment) [6]: has very low or no activity of cleaving IgG1 in the sera of mice; cleavage of serum IgG of different species (SDS-PAGE) [6]: IgG in the sera of rats and mice was nearly uncleaved; cleavage of immunoglobulins of different species (SDS-PAGE) [7]: E97D_del18 can effectively cleave dog IgG; cleavage of serum IgG of different species (SDS-PAGE) [7]: E97D_del18 can effectively cleave IgG in the sera of rabbits, dogs and monkeys; cleavage of immunoglobulins of different species (SDS-PAGE) [8]: E97D_del18 can effectively cleave ... rabbit IgG; cleavage in human serum in vitro (SDS-PAGE, 25 kD Fc fragment) [9]: E97D_del18 can effectively and specifically cleave IgG1 in the sera of humans; cleavage of serum IgG of different species (SDS-PAGE) [10]: IgG in the sera of rats and mice was nearly uncleaved
